The results in this text go back to patent publication US20220228157A1, “GENE EDITING IN DIVERSE BACTERIA” (priority 2019, published 2022).

Assay [1] concerns E. coli MG1655. Kind of assay: DIvERGE mutagenesis of gyrA, gyrB, parC, parE with ciprofloxacin selection. Format: cell-based, Escherichia coli. As to conditions: one round of DIvERGE.
Assay [2] concerns Citrobacter freundii ATCC 8090. Description: Recombineering efficiency by LacZ screening. Format: cell-based. As to conditions: pORTMAGE-based constructs. The text has this: (§1) To test the activity of PapRecT and CspRecT in these three organisms, the broad-host-range pORTMAGE system (Nyerges et al., Proc. Natl. Acad. Sci. U.S.A. 113, 2502-2507 (2016)) was built on as described above. For experiments in E. coli PapRecT or CspRecT was subcloned in place of Redβ into pORTMAGE311B (Szili et al., Antimicrob. Agents Chemother. AAC.00207-19 (2019) doi:10.1128/AAC.00207-19) (FIGS. 10A-10B; Addgene accession: #120418), which transiently disrupts MMR with EcMutL_E32K, and whose RSF1010 origin of replication and m-toluic-acid-based expression system allows the plasmid to be deployed over a broad range of bacterial hosts (Honda et al., Proc. Natl. Acad. Sci. U.S.A. 88, 179-183 (1991); Gawin et al., Microb. Biotechnol. 10, 702 (2017)). These same pORTMAGE-based constructs were used for testing in C. freundii and K. pneumoniae. […]
(§2) Oligos were designed to introduce I) premature STOP codons into lacZ for E. coli, K. pneumoniae, and C. freundii, or II) RpsL K43→R; GyrA T83→I; ParC S83→L; RpoB D521→V, or a premature STOP codon into nfxB for P. aeruginosa. […] After recovery overnight, cells were plated at empirically-determined dilutions to a density of 200-500 colonies per plate. […] In all cases, allelic-replacement frequencies were calculated by dividing the number of recombinant CFUs by the number of total CFUs. […]

Assay [3] relates to Klebsiella pneumoniae ATCC 10031. Description: Recombineering efficiency by LacZ screening. The settings on record: pORTMAGE-based constructs. The class given is cell-based.
Excerpt: as §1, §2

Assay [4] has as its system E. coli. Description: Editing efficiency by NGS, non-coding mismatch at a non-essential gene. Format: cell-based, Escherichia coli. The settings on record: silent mismatch MAGE oligo, SEER plasmid system. How it is done: Top-performing SSAPs and SSAP/SSB pairs from experiments in E. coli, L. lactis, and M. smegmatis are shown in FIG. 2A, FIG. 2B and FIG. 2C, respectively. Bars in red are the proteins that had previously been reported in the literature. The proteins listed were found after ten rounds of selection for protein variants that enabled the introduction of an oligonucleotide that conferred a genomic edit that provided antibiotic resistance. Unbiased editing efficiency was tested in each case by introducing a non-coding base change at a non-essential gene and measuring the frequency of incorporation via next generation sequencing.
Their recombineering efficiency was tested against Redβ expressed off of its wild-type codons on the same plasmid system used for the SEER selections. […]
The efficiency of each SSAP or SSAP/SSB pair was measured by expressing them off of their host-specific plasmid in the naïve parent strain and running a recombineering cycle with an oligo that confers a 4-nucleotide non-coding mismatch in a non-essential gene. The allele was then amplified by PCR and editing efficiency was measured by next-generation sequencing.
To measure single locus editing, a recombineering cycle was run with an oligo that confers a single base pair non-coding mismatch in a non-essential gene. The allele was then amplified by PCR and editing efficiency was measured by NGS as described above. […]

B1: CspRecT: RecT SSAP (UniParc ID: UPI0001837D7F) from a phage of Collinsella stercoris (protein)
chain: MNQIVKFTDDSGLAVQVTPDDVRRYICENATEKEVGLFLQLCQTQRLNPFVKDAYLVKYGGAPASMITSYQVFNRRACRDANYDGIKSGVVVLRDGDVVHKRGAACYKKAGEELIGGWAEVRFKDGRETAYAEVALDDYSTGKSNWAKMPGVMIEKCAKAAAWRLAFPDTFQGMYAAEEMDQAQQPEQVRAQAEQPVDLQPIRELFKPYCEHFGITPAEGMTAVCGAVGAEGMHSMTEQQARRARAWMEEEMAAPAVEAEYEVVDEGEVF
modifications: Collinsella stercoris DSM 13279
Take B1: the “Colonies relative to Redβ and PapRecT” value in assay [1] (250 ng/mL CIP, 130 oligos) is recorded as “more than ten times as many colonies”. Further, the Resistant variants produced result in assay [1] (1,000 ng/mL CIP) is reported as “only the use of CspRecT produced resistant variants”. Further, the “Editing performance in C. freundii” value in assay [2] was “optimal choice of protein”. Also, the “Editing performance in K. pneumoniae” value in assay [3] is “optimal choice of protein”.

B2: PapRecT: SSAP from Pseudomonas aeruginosa, SEQ ID NO: 24, UniParc ID: UPI0001E9E6CB (protein, listed as Pseudomonas aeruginosa)
chain: MGTALTPLLTKFATRYEMGTTPEEVANTLKQTCFKGQVNDSQMVALLIVADQYKLNPFTKELYAFPDKNNGIVPVVGVDGWARIINENPQFDGMEFSMDQQGTECTCKIYRKDRSHAISATEYMAECKRNTQPWQSHPRRMLRHKAMIQCARLAFGFAGIYDQDEAERIVERDVTPAEQYEDVSEAICLIKDSPTMEDLQAAFSNAWKAYKTKGARDQLTAAKDQRKKELLDAPIDVEFEETGDDRAA
For B2, the “Efficiency of recombineering at ynfF by NGS” value in assay [4] is 31%±2%.
